Results as given in patent US20220380421A1 (University of California, published 2022).

Columns and labels:
Myc-tagged Apo-SpyCas9 = target: T1, Myc-tagged Apo-SpyCas9 (Streptococcus pyogenes, UniProt Q99ZW2 1-1368); assay: GST-Acr immunoprecipitation from P. aeruginosa expressing Myc-tagged Apo-SpyCas9 without sgRNA; immunoblot (FIGS. 3D, 7C)
T1 construct: not shown: 3xMyc tag at the C-terminus

Myc-tagged SpyCas9-sgRNA [1] = target: T2, Myc-tagged SpyCas9-sgRNA (Streptococcus pyogenes, UniProt Q99ZW2 1-1368); assay: discussion of the co-immunoprecipitation results; state of SpyCas9 not named there
T2 construct: not shown: 3xMyc tag at the C-terminus

Myc-tagged SpyCas9-sgRNA [2] = target: T2, Myc-tagged SpyCas9-sgRNA; assay: co-immunoprecipitation of Myc-tagged SpyCas9-sgRNA from P. aeruginosa co-expressing GST-Acr; immunoblot and Coomassie gel (FIG. 3B)

T2 sequence (Q99ZW2 whole entry): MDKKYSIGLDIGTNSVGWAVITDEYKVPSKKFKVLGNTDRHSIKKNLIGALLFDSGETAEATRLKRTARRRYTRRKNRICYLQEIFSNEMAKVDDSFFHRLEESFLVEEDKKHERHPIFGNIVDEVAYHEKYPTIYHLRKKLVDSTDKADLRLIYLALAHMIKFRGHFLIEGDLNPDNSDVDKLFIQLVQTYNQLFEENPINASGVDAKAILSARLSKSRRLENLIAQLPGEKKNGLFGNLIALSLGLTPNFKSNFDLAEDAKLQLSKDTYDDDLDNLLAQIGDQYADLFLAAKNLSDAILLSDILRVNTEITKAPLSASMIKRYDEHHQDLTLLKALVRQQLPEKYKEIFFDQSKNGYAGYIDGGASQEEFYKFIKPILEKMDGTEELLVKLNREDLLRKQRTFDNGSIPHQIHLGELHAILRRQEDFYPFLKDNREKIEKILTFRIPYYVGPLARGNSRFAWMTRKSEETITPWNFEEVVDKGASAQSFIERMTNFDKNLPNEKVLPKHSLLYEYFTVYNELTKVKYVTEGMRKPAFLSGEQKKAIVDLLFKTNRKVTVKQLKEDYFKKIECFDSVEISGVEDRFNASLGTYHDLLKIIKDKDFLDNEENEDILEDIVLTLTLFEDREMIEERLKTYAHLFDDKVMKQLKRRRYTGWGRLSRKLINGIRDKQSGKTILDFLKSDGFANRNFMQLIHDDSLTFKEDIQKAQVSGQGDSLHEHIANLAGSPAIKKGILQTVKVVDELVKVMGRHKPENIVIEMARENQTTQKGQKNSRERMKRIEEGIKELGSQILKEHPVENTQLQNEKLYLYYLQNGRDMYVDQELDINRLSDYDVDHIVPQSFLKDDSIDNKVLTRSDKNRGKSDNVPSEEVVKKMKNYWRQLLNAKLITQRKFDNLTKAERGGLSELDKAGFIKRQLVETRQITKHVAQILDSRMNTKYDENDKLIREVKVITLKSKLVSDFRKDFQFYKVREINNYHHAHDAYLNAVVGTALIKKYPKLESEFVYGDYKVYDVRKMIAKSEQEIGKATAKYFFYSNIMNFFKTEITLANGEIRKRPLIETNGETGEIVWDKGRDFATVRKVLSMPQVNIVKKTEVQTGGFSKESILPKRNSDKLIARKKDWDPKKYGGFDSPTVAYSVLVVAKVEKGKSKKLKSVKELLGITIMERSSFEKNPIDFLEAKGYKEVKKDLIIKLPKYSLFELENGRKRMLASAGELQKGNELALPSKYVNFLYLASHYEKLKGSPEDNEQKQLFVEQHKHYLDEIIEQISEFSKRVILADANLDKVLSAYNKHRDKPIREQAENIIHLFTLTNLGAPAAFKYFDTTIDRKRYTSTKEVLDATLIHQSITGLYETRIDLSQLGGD
T1 sequence (Q99ZW2 whole entry): as above

| Binder | binding result (Myc-tagged Apo-SpyCas9) | binding result (Myc-tagged SpyCas9-sgRNA [1]) | binding result (Myc-tagged SpyCas9-sgRNA [2]) |
| --- | --- | --- | --- |
| GST-AcrIIA19_Ssim (other) MKLIVEVEETNYKNLVNYTKLTNESHNILVNRLISEYITKPYELRLDLSERYSNRDLIEFKFMLIEYCKEALQDIKELANSDEAYETDEAFEAVFRQLFEEVISNPDTVLKAFHSYTSFLEENK | binds | binds | – |
| GST-AcrIIA17_Sga (other, also called GST-AcrIIA7_Sga) MKISVDSEKLLNEAINDFDIFGEDFNVYAIYSYREDYDFEYISDYVDADEPTRDEFETEEDYQEVMKDFKENLDSLKFTKHKKMTIADLVHELWEQNRIF | binds | binds | – |
| GST-AcrIIA16_Lmo (other) MGYIGTKRSERSQDAIEDYEVPLNHFNKDLIQAFIDENEAYDTLKTKKVRLWKFVAPRAGATSWHHTGTYYNKTDHYSLEKVADELLQNGDEWEEQFKAYVKEEQETATSEPVFLSVIKVQIWGGSMKRPKLVGHEVVMGVKKEGWLHAVSKATQSKYKLSANKVEMQKHYSLEDYSALTKDFPEFKAQKRAINKKMKEMYN | binds | – | binds |
